Where a chain is given by its changes, count along the chain named.
B1: mAb10930 (antibody, V domains shown)
VH: EVQLVESGGGLVQPGRSLRLSCAASGFTFDDYAMYWVRQAPGKGLEWVSGISWNSGSIGYADSVKGRFTISRDNAKNSLYLQMNSLRAADTALYYCAKDKDWNSRGYYYYGMDVWGQGTTVTVSS
VL: not shown
B2: mAb10921 (antibody, V domains shown)
VH: EVQLVESGGGLVQPGGSLRLSCAASGITVSSNYMSWVRQAPGKGLEWVSVIYSGGSTFYADSVKGRFTISRHNSKNTLYLQMNSLRAEDTAVYYCARERNFDAFDIWGQGTMVTVSS
VL: DIQMTQSPSSVSASVGDRVTITCRASQGISSWLAWYQQKPGKAPKLLIYAASSLQSGVPSRFSGSGSGTDFTLTISSLQPEDFATYYCQQANSFPLFTFGPGTKVDIKR
B3: mAb10984 (antibody, V domains shown)
VH: EVQLVESGGGLVQPGGSLRLSCAASGLTVNRNYMSWVRQAPGKGLEWVSLIYSGGSTYYADSVKGRFTISRDNSKNTLYLQMNSLRLEDTAVYYCARGELGIPYGMDVWGQGTTVTVSS
VL: QSVLTQPPSVSAAPGQKVTISCSGSSSNIGNNYVSWYQQLPGTAPKLLIYDNNKRPSGIPDRFSGSKSGTSATLGITGLQTGDEADYYCGTWDSSLSAGVFGGGTKLTVLG
B4: mAb10964 (antibody, V domains shown)
VH: QVQLQESGPGLVKPSETLSLTCTVSGGSINNYYWIWIRQPPGKGLEWIGYIYHSGSTNYNPSLKSRVTISVDTSKNQFSLKVSSVTAADTAVYYCANMVRGVYEDDYWGQGTLVTVSS
VL: DIQMTQSPSSLSASVGDRVTITCRASQSISNYLNWYQQKPGKAPKLLIFAASSLRSGVPSRFSGSGSGTDFTLTISSLHPEDFATYYCQQNYNTPLTFGPGTKVDIKR
B5: mAb10936 (antibody, V domains shown)
VH: QVQLVESGGGVVQPGRSLRLSCAASGFTFRNYGMHWVRQAPGKGLEWVSVIWYDGSNRYYADSVKGRFTISRDTSKNTLYLQMNSLRAEDTAVYYCARDPPITGTTGGDAFDIWGQGTMVTVSS
VL: not shown
B6: mAb10932 (antibody, V domains shown)
VH: EVQLVESGGGLVQSGGSLRLSCAASGLTVSSNYMSWVRQAPGKGLEWVSVIYSGGSTFYSDSVKGRFTISRHNSKNTLYLQMNSLRAEDTAVYYCARARGDAFDIWGQGTMVTVSS
VL: not shown
B7: mAb10920 (antibody, V domains shown)
VH: QVQLVESGGGVVQPGRSLRLSCAASGFTFSYYGMHWVRQAPGKGLEWVAVIWYDGSNKFYADSVKGRFTISRDNSKNTLYLQMNSLRAEDTAVYYCAAARPGYYYGMDVWGQGTTVTVSS
VL: DIQMTQSPSSLSASVGDRVTITCRASQGISNYLAWFQQKPGKAPNSLIYAASSLQRGVPSKFSGSGSGTDFTLTISSLQPEDFATYYCQQYNSYPRTFGQGTKVEIKR
B8: mAb10971 (antibody, V domains shown)
VH: EVQLVESGGGLIQPGGSLRLSCAASGVTVSSNYMSWVRQAPGKGLEWVSVIYSGGSTFYSDSVKGRFSISRDNSKNTLYLQMNSLRAEDTAVYYCARDLYYYGMDVWGQGTTVTVSS
VL: DIQLTQSPSFLSASVGDRVTITCRASQGISTYLAWYQQKPGKAPKLLIYAASTLQSGVPSRFSGSGSGTEFTLTISSLQPEDFATYYCQQLDSYPGLTFGGGTKVEIKR
B9: mAb10982 (antibody, V domains shown)
VH: EVQLVESGGGLVQPGGSLRLSCAASGLTVSSNYMSWVRQAPGKGLEWVSVIYSGGTTYYADSVKGRFTISRHNSKNTLSLQMNSLRAEDTAVYYCARGEGANYYGMDVWGQGTTVTVSS
VL: QSVLTQPPSVSGAPGQRVTISCTGSSSNIGTGYDVHWYQQLPGTAPKLLIYGNSNRPSGVPDRFSGSKSGTSASLAITGLQAEDEADYYCQSYDSSLSGYVVFGGGTKLTVLG
B10: mAb10985 (antibody, V domains shown)
VH: EVQLVESGGGLVQPGRSLRLSCAASGFTFDDYAMHWVRQAPGKGLEWVSGISWNRGSIGYADSVKGRFTISRDNAKNSLYLQMSSLRAEDTALYYCAKDGERWDSVVVPSARNGMDVWGQGTTVTVSS
VL: B9 VL with T31A, Y100S, V101Y, G105T, L109V
B11: mAb10965 (antibody, V domains shown)
VH: EVQLVESGGGLIQPGGSLRLSCAASVFTVSYNYMSWVRQAPGKGLEWVSVIYSGGSTYYADSVKGRFTISRDNSKNTLYLQMNSLRAEDTAVYYCARALPGWGGSFEYFDYWGQGTLVTVSS
VL: not shown
B12: mAb10939 (antibody, V domains shown)
VH: EVQLVESGGGLVQPGGSLRLSCAASGLTVSSNYMNWVRQVPGKGLEWVSVIYSGGSKFYVDSVKGRFTISRHNSKNTLYLQMNSLRPEDTAVYYCTRDAQYYGMDVWGQGTTVTVSS
VL: DIQMTQSPSSLSASVGDRVTITCRASQSISTYLHWYQQKPGEAPKLLIYAASSLQSGVPSRFSGSGSGTDFTLTISSLQPEDFATYYCQQSYSTPPEIFGQGTKLEIKR
B13: mAb10934 (antibody, V domains shown)
VH: not shown
VL: DIQMTQSPSSLSASVGDRVTITCQASQDIWNYINWYQQKPGKAPKLLIYDASNLKTGVPSRFSGSGSGTDFTFTISSLQPEDIATYYCQQHDDLPPTFGQGTKVEIKR
B14: mAb10938 (antibody, V domains shown)
VH: EVQLVESGGGLVQPGGSLRLSCAVSGFTVSSNYMSWVRQAPGKGLEWVSLIYSGGSTFYADSVKGRFTISRHNSKNTLYLQMNSLRAEDTAVYYCAREGGYSYDYNYWGQGTLVTVSS
VL: B13 VL with W30R, I33L, K55E, S65I, H91Y, D93N, P96I, K103R, V104L
B15: mAb10954 (antibody, V domains shown)
VH: EVQLVESGGGLVQPGGSLRLSCAASGITVSSNYMSWVRQAPGKGLEWVSLIYSGGSTYYADSVKGRFTISRDNSKNTLYLQMNSLRVEDTAVYYCARDHGMAAAGYNYWGQGTLVTVSS
VL: B13 VL with W30N, N31K, I33L, K55E, S76N, I83F, Y87F, H91Y, D93N, T97A
B16: mAb10935 (antibody, V domains shown)
VH: EVQLVESGGGLVQPGGSLRLSCAASGFTVSSNYMSWVRQAPGKGLEWVSLIYSGGSTYYADSVKGRFTISRHNSKNTLYLQMNSLRSEDTAVYYCARVPLGDYYYGMDVWGQGTTVTVSS
VL: B13 VL with W30N, N31K, I33L, K55E, H91S, D93N, P96L, Q100G
B17: mAb10967 (antibody, V domains shown)
VH: EVQLVESGGGLVQPGGSLRLSCAASGFTVSSNYMSWVRQAPGKGLEWVSVIYPGGSTFYADSVKGRFTISRDNSKNTLYLQMNSLRAEDTAVYYCARDQRDFAWGQGTLVTVSS
VL: B13 VL with W30S, I33L, K55E, S77G, H91Y, D93N, K103R, V104L
B18: mAb10955 (antibody, V domains shown)
VH: EVQLVESGGGLVQPGGSLRVSCAASGFTVSRNYMSWVRQAPGKGLEWVSVIYSGGSTFYADSVKGRFTISRDNSKNTLYLQMNSLRAEDTAIYYCARYIPRFDPWGQGTLVTVSS
VL: B13 VL with W30S, I33L, Y36F, K42R, K55E, H91Y, D93N, P96I, K103R, V104L
B19: mAb10923 (antibody, V domains shown)
VH: QVQLVQSGAEVKKPGASVKVSCKASGYTFINYYIHWVRQAPGQGLEWMGWINPNSGGTNYAQKFQGRVTMTRDTSISTAYMELSRLRSDDTAVYYCAIITIFGVVTWFDPWGQGTLVTVSS
VL: not shown
B20: mAb10937 (antibody, V domains shown)
VH: QITLKESGPTLVKPTQTLTLTCTFSGFSLSTNVVGVGWIRQPPGKALEWLALIYWNDDKRYSPSLKSRLTITKDTSKNQVVLTMTNMDPVDTATYYCAHGPTGDYFDYWGQGTLVTVSS
VL: not shown
B21: mAb10915 (antibody, V domains shown)
VH: EVQLVESGGGLVQPGGSLRLSCAASGFTVSSNYMNWVRQAPGKGLEWVSVIYSGGSTFYADSVKGRFTISRHNSKNTLYLQMNSLRPEDTAVYYCARDLGGYFDYWGQGTLVTVSS
VL: not shown
B22: mAb10966 (antibody, V domains shown)
VH: EVQLVESGGGLVQPGGSLRLSCAASGLTVSSNYMSWVRQAPGKGLEWVSVIYSGGSTFYADSVKGRFTISRDNSKNTLYLQMNSLRPEDTAVYYCAREGRIAATGYGMDVWGQGTTVTVSS
VL: not shown
B23: mAb10989 (antibody, V domains shown)
VH: QVQLVQSGAEVKKPGASVKVSCKASGYIFTGYYMHWVRQAPGQGLEWMGWINPNSGGANYAQKFQGRVTLTRDTSITTVYMELSRLRFDDTAVYYCARGSRYDWNQNNWFDPWGQGTLVTVSS
VL: QSALTQPASVSGSPGQSITISCTGTSSDVGTYNYVSWYQQHPGKAPKLMIFDVSNRPSGVSDRFSGSKSGNTASLTISGLQAEDEADYYCSSFTTSSTVVFGGGTKLTVLG

Each binder was assayed against Bt-SARS-CoV-2 Spike Protein (RBD) (R319-F541).mFc (SARS-CoV-2) (assay: Luminex beads, supernatant).
B1 gave an MFI of 16600 MFI. Work on B2 yielded an MFI of 11300 MFI. B3 gave an MFI of 17100 MFI. B4 gave an MFI of 19200 MFI. In the case of B5, the MFI is reported as 21600 MFI. For B6, the MFI was 17700 MFI. B7 gave an MFI of 20300 MFI. For B8, the MFI was 16700 MFI. B9 showed an MFI of 12300 MFI. B10 was tested, and the MFI was 15500 MFI. Work on B11 yielded an MFI of 13700 MFI. B12 was tested, and the MFI was 18700 MFI. Work on B13 yielded an MFI of 21200 MFI. For B14, the MFI was 17200 MFI. Work on B15 yielded an MFI of 18400 MFI. For B16, the MFI was 19300 MFI. B17 showed an MFI of 16800 MFI. Work on B18 yielded an MFI of 16800 MFI. Work on B19 yielded an MFI of 19600 MFI. B20 was tested, and the MFI was 19700 MFI. With B21 the MFI was 20100 MFI. B22 showed an MFI of 17900 MFI. For B23, the MFI was 11200 MFI.

The binders below were run against SARS-CoV-2 Spike Protein (RBD) (R319-F541).mFc (SARS-CoV-2) (assay: Luminex beads, supernatant).
In the case of B1, the MFI is reported as 28600 MFI. With B2 the MFI was 19400 MFI. B3 was tested, and the MFI was 28400 MFI. Binder B4 has an MFI of 32400 MFI. B5 gave an MFI of 33700 MFI. Binder B6 has an MFI of 30600 MFI. B7 gave an MFI of 36400 MFI. B8 gave an MFI of 28700 MFI. Work on B9 yielded an MFI of 23300 MFI. B10 showed an MFI of 29400 MFI. For B11, the MFI was 27100 MFI. B12 gave an MFI of 33900 MFI. For B13, the MFI was 34300 MFI. B14 showed an MFI of 30500 MFI. B15 was tested, and the MFI was 31300 MFI. B16 gave an MFI of 35900 MFI. For B17, the MFI was 29600 MFI. B18 showed an MFI of 30800 MFI. For B19, the MFI was 37400 MFI. B20 gave an MFI of 34200 MFI. Work on B21 yielded an MFI of 31800 MFI. B22 gave an MFI of 30400 MFI. Binder B23 has an MFI of 19600 MFI.

Each binder was assayed against SARS-CoV-2 Spike Protein (RBD) (R319-F541).hFc (SARS-CoV-2) (assay: Luminex beads, supernatant).
With B1 the MFI was 28900 MFI. Binder B2 has an MFI of 22300 MFI. Binder B3 has an MFI of 28400 MFI. B4 was tested, and the MFI was 33100 MFI. For B5, the MFI was 33900 MFI. In the case of B6, the MFI is reported as 30600 MFI. B7 showed an MFI of 36800 MFI. For B8, the MFI was 30000 MFI. B9 gave an MFI of 23000 MFI. B10 gave an MFI of 31100 MFI. Binder B11 has an MFI of 29600 MFI. B12 gave an MFI of 32900 MFI. In the case of B13, the MFI is reported as 35800 MFI. With B14 the MFI was 29600 MFI. B15 was tested, and the MFI was 31800 MFI. B16 showed an MFI of 35600 MFI. Work on B17 yielded an MFI of 28700 MFI. B18 was tested, and the MFI was 31200 MFI. With B19 the MFI was 37800 MFI. B20 gave an MFI of 34600 MFI. Work on B21 yielded an MFI of 32400 MFI. In the case of B22, the MFI is reported as 30800 MFI. With B23 the MFI was 22400 MFI.
